Experimental data as given in patent US20050249739A1.

Biological target: S protein of GD03T on pseudotyped HIV (SARS-CoV (GD03T isolate))
Experiment: cell-based or functional assay

Substance: 80R IgG1 (antibody)
- S-protein-pseudotyped HIV luciferase infection of ACE2-expressing 293T cells: > 50 µg/mL
